Where a chain is given by its changes, count along the chain named.
B1: P2H12 IgG (antibody, V domains shown)
VH: EVQLVESGGGLVKAGGSLILSCGVSNFRISAHTMNWVRRVPGGGLEWVASISTSSTYRDYADAVKGRFTVSRDDLEDFVYLQMHKMRVEDTAIYYCARKGSDRLSDNDPFDAWGPGTVVTVSP
VL: GVVMTQSPSTLSASVGDTITITCRASQSIETWLAWYQQKPGKAPKLLIYKASTLKTGVPSRFSGSGSGTEFTLTISGLQFDDFATYHCQHYTDHHGATFGQGTRVEIKR
B2: 1H12 IgG (antibody, V domains shown)
VH: B1 VH
VL: GVVMTQSPSTLSASVGDTITITCRASQSIETWLAWYQQKPGKAPKLLIYKASTLKTGVPSRFSGSGSGTEFTLTISGLQFDDFATYHCQHYMPYRASFGQGTRVEIKR
B3: A1G7 IgG (antibody, V domains shown)
VH: B1 VH
VL: B1 VL with H95R
B4: P1F9 IgG (antibody, V domains shown)
VH: B1 VH
VL: B1 VL with T92R, D93A, H95T
B5: A5G10 IgG (antibody, V domains shown)
VH: B1 VH
VL: B1 VL with T92R, D93P, H95T
B6: 2G12 Polymun (Cat. No. AB002, Polymun Scientific) (antibody, V domains shown)
VH: B1 VH
VL: B2 VL with G1D, M92A, P93G, R95S, S97T
B7: A4F10 IgG (antibody, V domains shown)
VH: B1 VH
VL: B1 VL with H95Y
B8: A2A12 IgG (antibody, V domains shown)
VH: B1 VH
VL: B1 VL with D93A, H95T
B9: A1E8 IgG (antibody, V domains shown)
VH: B1 VH
VL: B1 VL with H95K
B10: P4H12 IgG (antibody, V domains shown)
VH: B1 VH
VL: B1 VL with D93A, H95R
B11: 2G12 IgG (wildtype, made in house) (antibody, V domains shown)
VH: B1 VH
VL: B2 VL with G1D, M92A, P93G, R95S, S97T
B12: 1H12 Fab (Fab, V domains shown)
VH: B1 VH
VL: B2 VL
B13: P2H12 Fab (Fab, V domains shown)
VH: B1 VH
VL: B1 VL
B14: A4F10 Fab (Fab, V domains shown)
VH: B1 VH
VL: B1 VL with H95Y
B15: A1G7 Fab (Fab, V domains shown)
VH: B1 VH
VL: B1 VL with H95R
B16: 1F8 IgG (antibody, V domains shown)
VH: B1 VH
VL: B2 VL with M92L, Y94F, R95N, S97T
B17: ID-1-RD5-P2H8 Fab (Fab, V domains shown)
VH: B1 VH
VL: B2 VL with M92R, P93E, Y94W, R95H, S97T
B18: ID-1-RD4-P2G9 Fab (Fab, V domains shown)
VH: B1 VH
VL: B2 VL with M92Q, Y94F, R95D, S97T
B19: ID-2-RD4-P1A5 Fab (Fab, V domains shown)
VH: B1 VH
VL: B2 VL with M92L, P93S, R95N, S97T
B20: ID-2-RD6-P1H10 Fab (Fab, V domains shown)
VH: B1 VH
VL: B2 VL with M92Q, Y94F, R95K, S97T
B21: ID-3-RD6-P1H10 Fab (Fab, V domains shown)
VH: B1 VH
VL: B1 VL with D93A, H95N
B22: ID-3-RD5-P2H7 Fab (Fab, V domains shown)
VH: B1 VH
VL: B1 VL with T92R, D93A, H95S
B23: ID-1-RD4-P2C10 Fab (Fab, V domains shown)
VH: B1 VH
VL: B2 VL with M92K, Y94F, R95M, S97T
B24: ID-3-RD5-P2E9 Fab (Fab, V domains shown)
VH: B1 VH
VL: B1 VL with D93P, H95F
B25: ID-2-RD6-P1H11 Fab (Fab, V domains shown)
VH: B1 VH
VL: B2 VL with P93A, R95D, S97T

Target: Candida albicans (Cat. No. 10231, ATCC) whole cells (Candida albicans)
Experiment: FACS, IgG on fixed cells

Binder	affinity [nM]
B1	50
B2	10
B3	50
B4	23
B5	50
B6	500
B7	50
B8	50
B9	50

Target: Candida glabrata clinical isolate, whole cells (Candida glabrata)
Experiment: FACS, IgG on fixed cells

Binder	affinity [nM]
B2	12
B4	102
B5	72

Target: Candida krusei clinical isolate, whole cells (Candida krusei)
Experiment: FACS, IgG on fixed cells

Binder	affinity [nM]
B1	50
B2	17
B3	50
B4	27
B5	50
B6	1000
B7	50
B8	50
B9	50

Target: Candida tropicalis clinical isolate, whole cells (Candida tropicalis)
Experiment: FACS, IgG on fixed cells

Binder	affinity [nM]
B2	23
B4	51
B10	21

Target: Candida albicans (Cat. No. 10231, ATCC) whole cells (Candida albicans)
Experiment: luminescent ELISA on C. albicans cells

Binder	EC50 [nM]
B2	6.1
B4	19

Target: Candida albicans (Cat. No. 10231, ATCC) whole cells (Candida albicans)
Experiment: colorimetric ELISA on C. albicans cells

Binder	EC50 [nM]	fold higher affinity than 2G12 Polymun [fold]
B2	0.82	
B11		8
B4	3.2	
B6	500	

Target: Candida albicans (Cat. No. 10231, ATCC) whole cells (Candida albicans)
Experiment: luminescent ELISA, Fab on C. albicans cells

Binder	Approximate Affinity [µg/mL]
B12	9
B13	2
B14	1
B15	1.5

Target: Candida albicans (Cat. No. 10231, ATCC) whole cells (Candida albicans)
Experiment: colorimetric ELISA on C. albicans cells, [50% Max]

Binder	EC50 [nM]
B16	0.9
B2	0.4
B11	9.7
B6	76.3

Target: Candida albicans (Cat. No. 10231, ATCC) whole cells (Candida albicans)
Experiment: converted from Table 20a with a Fab of about 50 kDa

Binder	affinity (converted to molar) [nM]
B12	180
B13	40
B14	20
B15	30

Target: Candida albicans (Cat. No. 10231, ATCC) whole cells (Candida albicans)
Experiment: luminescent C. albicans ELISA, Fab; assay background 950

Binder	ELISA (RFU)
B12	1710
B17	3500
B18	4000
B19	8140
B20	5000
B21	50000
B22	27000
B23	7900
B24	8000
B25	13000

Target: Candida albicans (Cat. No. 10231, ATCC) whole cells (Candida albicans)
Experiment: FACS, IgG on fixed C. albicans cells; end tied to 1F8 by Table 23

Binder	fold increased binding affinity against wildtype 2G12 [fold]
B16	10

Target: Candida albicans (Cat. No. 10231, ATCC) whole cells (Candida albicans)
Experiment: C. albicans FACS, mean FITC fluorescence, Fab; assay background 100

Binder	FACS (MF)
B12	2080
B17	4930
B18	2350
B19	4000
B20	2190
B21	3380
B22	10600
B23	10600
B24	8910
B25	3760

Target: Candida albicans (Cat. No. 10231, ATCC) whole cells (Candida albicans)
Experiment: FACS, IgG on fixed C. albicans cells; end tied to 1H12 by Table 23

Binder	fold increased binding affinity against wildtype 2G12 [fold]
B2	30

Target: Candida albicans (Cat. No. 10231, ATCC) whole cells (Candida albicans)
Experiment: FACS, IgG on fixed C. albicans cells, concentration at 50% maximum binding

Binder	EC50 [nM]
B16	15.1
B2	5.2
B11	150
B6	500

Reference: patent publication US20110189183A1
